Results reported in patent US20200247894A1 (Regeneron, published 2020).
Changes are numbered by the printed parent chain.

Legend:
[1] = target: T1, Macaca fascicularis IL2Rγ extracellular domain expressed with a C-terminal myc-myc-hexahistidine tag (Macaca fascicularis); experiment: SPR Biacore 4000, mAb captured by anti-hFc, 37C, dissociation in PBS-T pH 7.4
T1 construct: also called mfIL-2Rg-MMH; mfIL-2RG-MMH
T1 chain: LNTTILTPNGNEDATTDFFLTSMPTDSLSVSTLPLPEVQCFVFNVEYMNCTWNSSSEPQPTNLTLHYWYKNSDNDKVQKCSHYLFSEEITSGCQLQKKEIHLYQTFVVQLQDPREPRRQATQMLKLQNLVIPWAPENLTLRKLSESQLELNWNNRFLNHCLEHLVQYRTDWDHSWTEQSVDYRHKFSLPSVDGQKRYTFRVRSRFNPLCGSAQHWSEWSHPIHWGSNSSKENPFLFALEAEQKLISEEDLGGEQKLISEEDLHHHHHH
Procedure: (§1) The dissociation rate constant (kd) for binding of IL-2Rγ reagents to purified anti-IL2Rγ monoclonal antibodies was determined using a real-time surface plasmon resonance based Biacore 4000 biosensor platform. […] The CM5 Biacore sensor surface derivatized by amine coupling with monoclonal mouse anti-human Fc antibody (GE, Catalog # BR-1008-39) was used to capture anti-IL2Rγ monoclonal antibodies expressed with human IgG4 Fc. All the IL2Rγ reagents were expressed with a C-terminal myc-myc-hexahistidine tag (subsequently referred to with a -MMH suffix). […] The dissociation of bound IL-2Rg-MMH was performed in PBS-T-pH7.4 or PBS-T-pH6.0 running buffers for 6 minutes.
(§2) Dissociation rate constants (kd) in two running buffers were determined by fitting the real-time binding sensorgrams to a 1:1 binding model using Scrubber 2.0c curve-fitting software. Values of dissociation rate for […] mAb binding to hIL-2RG-MMH and mfIL-2RG-MMH at 25° C. and 37° C. in PBS-T-pH7.4 and PBS-T-pH6.0 is shown in Table 2-1 through Table 2-8.

[2] = target: T1, Macaca fascicularis IL2Rγ extracellular …; experiment: SPR Biacore 4000, mAb captured by anti-hFc, HBS-ET, 25C
Procedure: (§3) Equilibrium dissociation constants (KD values) for IL-2Rγ binding to purified anti-IL2Rγ monoclonal antibodies were determined using a Biacore 4000 instrument equipped with a real-time surface plasmon resonance biosensor. All binding studies were performed in 10 mM HEPES, 150 mM NaCl, 3 mM EDTA, and 0.05% v/v Surfactant Tween-20, pH 7.4 (HBS-ET) running buffer at 25° C. and 37° C. The Biacore sensor surface was first derivatized by amine coupling with a monoclonal mouse anti-human Fc antibody (GE, # BR-1008-39) to capture anti-IL2Rγ monoclonal antibodies.
(§4) The dissociation of monoclonal antibody bound IL2Rγ reagents were monitored for 8-10 minutes in HBS-ET running buffer. Kinetic association (kₐ) and dissociation (kd) rate constants were determined by fitting the real-time sensorgrams to a 1:1 binding model using Scrubber 2.0c curve fitting software. Binding dissociation equilibrium constants (KD) and dissociative half-lives (t_{1/2}) were calculated from the kinetic rate constants as: […]

[3] = target: T2, Human IL2Rγ extracellular domain expressed with a C-terminal myc-myc-hexahistidine tag (human); experiment: as above
T2 construct: also called hIL-2Rg-MMH; hIL-2RG-MMH
T2 chain: T1 chain with A14T, T16A, S22T, R141H, S228T
Procedure: as §3, §4

[4] = target: T1, Macaca fascicularis IL2Rγ extracellular …; experiment: SPR Biacore 4000, mAb captured by anti-hFc, 37C, dissociation in PBS-T pH 6.0
Procedure: as §1, §2

[5] = target: T2, Human IL2Rγ extracellular domain …; experiment: SPR Biacore 4000, mAb captured by anti-hFc, HBS-ET, 37C
Procedure: as §3, §4

[6] = target: T3, Human IL2Rγ extracellular domain expressed with a C-terminal myc-myc-hexahistidine tag (human); experiment: SPR, captured mAb, 37C, dissociation pH 7.4
T3 construct: also called hIL-2Rg-MMH; hIL-2RG-MMH
T3 chain: T1 chain with A14T, T16A, S22T, R141H, S228T
Procedure: as §1, §2

[7] = target: T3, Human IL2Rγ extracellular domain …; experiment: SPR, captured mAb, 37C, dissociation pH 6.0
Procedure: as §1, §2

[8] = target: T4, Macaca fascicularis IL2Rγ extracellular domain expressed with a C-terminal myc-myc-hexahistidine tag (Macaca fascicularis); experiment: SPR, captured mAb, 25C, dissociation pH 7.4
T4 construct: also called mfIL-2Rg-MMH; mfIL-2RG-MMH
T4 chain: T1 chain
Procedure: as §1, §2

[9] = target: T3, Human IL2Rγ extracellular domain …; experiment: SPR, captured mAb, 25C, dissociation pH 7.4
Procedure: as §1, §2

[10] = target: T4, Macaca fascicularis IL2Rγ extracellular …; experiment: SPR, captured mAb, 25C, dissociation pH 6.0
Procedure: as §1, §2

[11] = target: T3, Human IL2Rγ extracellular domain …; experiment: SPR, captured mAb, 25C, dissociation pH 6.0
Procedure: as §1, §2

B1: H4H13541P (antibody, human IgG4 S228P, kappa, V domains shown)
VH: EVQLVESGGGVVRPGGSLRLSCAASGFIFDDYDMSWVRQPPGRGLEWVSGIDWFGGTRGYADSMKGRFTISRDNAKNSLYLQMNSLRVEDTAFYYCARGGAIVGAVTPFDYWGQGTLVTVSS
VL: DIQMTQSPSSLSASVGNRVTLSCRASQSINTYLSWYQQRPGKAPKLLIYAASSLQSGVPSRFSGSGAGTDFTLTISSLQPEDFATYYCQQSYSAPLTFGGGTKVEIKR
notes: anti-IL2Rγ monoclonal antibody expressed with human IgG4 Fc
100 nM Ag Bound (RU) [1]: 100 RU
koff [1]: 0.000512 s⁻¹
t1/2 [1]: 23 min
100 nM Ag Bound [2]: 82 RU
Kd [2]: 1.85 nM
koff [2]: 0.000315 s⁻¹
kon [2]: 170000 M⁻¹ s⁻¹
t1/2 [2]: 37 min
100 nM Ag Bound [3]: 72 RU
Kd [3]: 2.41 nM
koff [3]: 0.000252 s⁻¹
kon [3]: 105000 M⁻¹ s⁻¹
t1/2 [3]: 46 min
100 nM Ag Bound (RU) [4]: 91 RU
koff [4]: 0.0015 s⁻¹
t1/2 [4]: 8 min
100 nM Ag Bound [5]: 103 RU
Kd [5]: 5.01 nM
koff [5]: 0.00078 s⁻¹
kon [5]: 156000 M⁻¹ s⁻¹
t1/2 [5]: 15 min

B2: H4H13545P2 (antibody, human IgG4 S228P, kappa, V domains shown)
VH: QVQLQQSGPGLVKPSQTLSLTCDISGDSVSSNIATWNWIRQSPSRGLEWLGRTYYRSKWYKDYAVSVKSRITINPDTSKNQFSLQVNSVTPEDTAVYYCARMTGPRYYFEYWGQGTLVTVSS
VL: not shown
notes: anti-IL2Rgamma mAb expressed with human IgG4 Fc
100 nM Ag Bound (RU) [6]: 7 RU
100 nM Ag Bound (RU) [7]: 6 RU
100 nM Ag Bound (RU) [8]: 30 RU
koff [8]: 0.00751 s⁻¹
t1/2 [8]: 1.5 min
100 nM Ag Bound (RU) [9]: 15 RU
koff [9]: 0.0213 s⁻¹
t1/2 [9]: 0.5 min
100 nM Ag Bound (RU) [10]: 20 RU
koff [10]: 0.00935 s⁻¹
t1/2 [10]: 1.2 min
100 nM Ag Bound (RU) [11]: 11 RU
koff [11]: 0.0334 s⁻¹
t1/2 [11]: 0.3 min

B3: H4H13545P2 (antibody, human IgG4 S228P, kappa, V domains shown)
VH: B2 VH
VL: not shown
notes: as for B1
100 nM Ag Bound (RU) [1]: 17 RU
100 nM Ag Bound [2]: 26 RU
Kd [2]: 143 nM
koff [2]: 0.014 s⁻¹
kon [2]: 97800 M⁻¹ s⁻¹
t1/2 [2]: 0.8 min
100 nM Ag Bound [3]: 12 RU
Kd [3]: 336 nM
koff [3]: 0.0575 s⁻¹
kon [3]: 171000 M⁻¹ s⁻¹
t1/2 [3]: 0.2 min
100 nM Ag Bound (RU) [4]: 13 RU
100 nM Ag Bound [5]: 7 RU
Kd [5]: 113 nM
koff [5]: 0.0691 s⁻¹
kon [5]: 611000 M⁻¹ s⁻¹
t1/2 [5]: 0.2 min

B4: H4H12924P2 (antibody, human IgG4 S228P, kappa, V domains shown)
VH: EVQLVESGGGLVQPGRSLRLSCAASGFTLEDYAMHWVRQAPGKGLEWVSGISWNRGSTGYADSVKGRFTISRDNAKNSLYLQMTSLRAEDTALYYCAKGFYSMDVWGQGTTVTVSS
VL: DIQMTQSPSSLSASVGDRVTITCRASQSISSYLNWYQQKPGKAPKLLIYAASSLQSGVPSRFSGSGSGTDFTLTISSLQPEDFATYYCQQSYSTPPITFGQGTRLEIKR
notes: as for B2
100 nM Ag Bound (RU) [6]: 133 RU
koff [6]: 0.00302 s⁻¹
t1/2 [6]: 4 min
100 nM Ag Bound (RU) [7]: 133 RU
koff [7]: 0.0143 s⁻¹
t1/2 [7]: 0.8 min
100 nM Ag Bound (RU) [8]: 130 RU
koff [8]: 0.000385 s⁻¹
t1/2 [8]: 30 min
100 nM Ag Bound (RU) [9]: 124 RU
koff [9]: 0.000479 s⁻¹
t1/2 [9]: 24 min
100 nM Ag Bound (RU) [10]: 131 RU
koff [10]: 0.00305 s⁻¹
t1/2 [10]: 4 min
100 nM Ag Bound (RU) [11]: 136 RU
koff [11]: 0.00367 s⁻¹
t1/2 [11]: 3 min
